# Where a chain is given by its changes, count along the chain named.
# T1: PBP1B R157A (E. coli, UniProt P02919 46-844, R157A)
# T1 construct: PBP1B, E. coli, residues 46-844, made by mutagenesis of pDML924; source: E. coli BL21(DE3), purified (membrane extract, HisTrap, thrombin, HiTrap SP ion exchange)
# T1 sequence (looked up): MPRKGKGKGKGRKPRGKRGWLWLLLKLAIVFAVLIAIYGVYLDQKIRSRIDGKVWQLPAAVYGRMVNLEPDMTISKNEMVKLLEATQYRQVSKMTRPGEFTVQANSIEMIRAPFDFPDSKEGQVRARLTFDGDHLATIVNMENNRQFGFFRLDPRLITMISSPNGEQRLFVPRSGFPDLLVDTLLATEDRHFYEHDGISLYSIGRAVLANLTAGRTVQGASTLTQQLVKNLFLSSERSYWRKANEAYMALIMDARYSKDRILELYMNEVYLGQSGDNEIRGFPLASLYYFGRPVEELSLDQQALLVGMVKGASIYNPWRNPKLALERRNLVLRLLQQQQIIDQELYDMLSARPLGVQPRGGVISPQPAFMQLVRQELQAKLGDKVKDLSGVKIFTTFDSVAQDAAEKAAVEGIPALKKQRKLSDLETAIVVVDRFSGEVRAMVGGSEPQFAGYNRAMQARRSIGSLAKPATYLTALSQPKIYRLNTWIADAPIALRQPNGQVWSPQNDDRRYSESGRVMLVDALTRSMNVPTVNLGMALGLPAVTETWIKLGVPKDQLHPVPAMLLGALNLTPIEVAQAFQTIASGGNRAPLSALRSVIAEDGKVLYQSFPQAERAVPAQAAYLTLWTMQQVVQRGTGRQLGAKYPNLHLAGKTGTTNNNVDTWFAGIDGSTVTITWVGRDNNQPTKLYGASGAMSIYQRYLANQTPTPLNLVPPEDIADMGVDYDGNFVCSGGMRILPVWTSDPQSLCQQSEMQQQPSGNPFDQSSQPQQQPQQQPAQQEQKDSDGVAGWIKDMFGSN
# T2: PBP1B I202F (E. coli, UniProt P02919 46-844, I202F)
# T2 construct: PBP1B, E. coli, residues 46-844, made by mutagenesis of pDML924; Substitution first found in the suppressor screen of Markovski et al. 2016 (LpoB bypass); source: E. coli BL21(DE3), purified (membrane extract, HisTrap, thrombin, HiTrap SP ion exchange)
# T2 sequence (looked up): T1 sequence (looked up) with A112R, I157F
# T3: PBP1B D160C/K437C (E. coli, UniProt P02919 46-844, D160C | K437C)
# T3 construct: PBP1B, E. coli, residues 46-844, made by mutagenesis of pDML924; Disulphide bridge between C160 and C437 (no free thiol groups detected); reduced in the SPR assay with 2 mM TCEP; source: E. coli BL21(DE3), purified (membrane extract, HisTrap, thrombin, HiTrap SP ion exchange)
# T3 sequence (looked up): T1 sequence (looked up) with A112R, D115C, K392C
# B1: LpoB (natural protein, E. coli)
# chain: VGQREPAPVEEVKPAPEQPAEPQQPVPTVPSVPTIPQQPGPIEHEDQTAPPAPHIRHYDWNGAMQPMVSKMLGADGVTAGSVLLVDSVNNRTNGSLNAAEATETLRNALANNGKFTLVSAQQLSMAKQQLGLSPQDSLGTRSKAIGIARNVGAHYVLYSSASGNVNAPTLQMQLMLVQTGEIIWSGKGAVSQQ
# notes: LpoB, E. coli; also called lipoprotein LpoB; source: E. coli BL21(DE3), purified (HisTrap, Superdex 200), as in Egan et al. 2014
# Key:
# Assay in all cases: SPR; PBP1B versions immobilised to the chip surface; LpoB injected from 19.5 nM to 10 μM; apparent KD by non-linear regression, at least three independent experiments
# Conditions in all cases: both partners purified
# PBP1B R157A = target: T1, PBP1B R157A
# PBP1B I202F = target: T2, PBP1B I202F
# PBP1B D160C/K437C = target: T3, PBP1B D160C/K437C
binder,measurement,setting,value
B1,Kd,PBP1B R157A,505 nM
same,Kd,PBP1B I202F,26 nM
same,Kd,PBP1B D160C/K437C,3970 nM

# Source: article PMC6220978, “Induced conformational changes activate the peptidoglycan synthase PBP1B” (Molecular Microbiology, 2018)
